These are literature values, as cited in publication PMC4276913.

The data set addresses Ubc13 (Homo sapiens) (UniProt P61088).
UniProt P61088, sequence (P61088 whole entry): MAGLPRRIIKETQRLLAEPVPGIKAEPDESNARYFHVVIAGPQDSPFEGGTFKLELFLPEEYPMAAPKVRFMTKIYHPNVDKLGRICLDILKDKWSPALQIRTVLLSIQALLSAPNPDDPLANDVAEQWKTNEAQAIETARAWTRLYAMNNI

In the case of Mms2 (from UniProt Q15819), the Kd (commonly the concentration at which binding is half-saturated) was 49 nM.
